How the values were obtained:
[1] = test system: adults with moderate-to-severe chronic pain associated with osteoarthritis (OA) of the knee or hip; test: FACT OA1 (NCT03161093, R475-OA-1611) Phase 3 trial, WOMAC pain and physical function; format: in vivo, human
Source text: (§1) NCT02683239 (R475-PN-1523, or “FACT LTS”), NCT03161093 (R475-OA-1611, or “FACT OA1”), and NCT03304379 (R475-OA-1688, or “FACT OA2”) each were Phase 3 trials evaluating fasinumab in adults with moderate-to-severe chronic pain associated with osteoarthritis (OA) of the knee or hip. All three of these trials enrolled patients with OA of the knee or hip who had inadequate pain relief with acetaminophen and were intolerant to or had inadequate pain relief with opioids, or were unwilling or unable to take opioids. Complete inclusion and exclusion criteria for the trials are described at clinicaltrials.gov/ct2/show/NCT03161093, clinicaltrials.gov/ct2/show/NCT03304379, and clinicaltrials.gov/ct2/show/NCT02683239.
FACT OA1 and FACT OA2 assessed the efficacy of fasinumab in comparison to nonsteroidal anti-inflammatory drugs (NSAIDs; naproxen, diclofenac, or celecoxib) for treatment of OA. FACT OA1 includes results from a total of 1,801 patients randomized to one of four treatment arms: fasinumab 1 mg SC once every 8 weeks (Q8W) (n=304), fasinumab 1 mg SC once every 4 weeks (Q4W) (n=639), naproxen 500 mg twice daily (n=644), or placebo (n=214). In FACT OA2, patients were randomized into one of six treatment groups: fasinumab 1 mg SC once every 4 weeks (Q4W), fasinumab 3 mg SC once every 4 weeks (Q4W), fasinumab 6 mg SC once every 8 weeks (Q8W), celecoxib 200 mg once daily, diclofenac 75 mg twice daily, or placebo. While the FACT OA2 trial was still ongoing, enrollment into the fasinumab 3 mg Q4W and 6 mg Q8W groups was stopped for safety considerations; patients enrolled in those dose regimens discontinued study drug and entered the post-treatment follow-up period.
Fasinumab patients in both trials also reported improvements in their pain and physical function (WOMAC score) compared to those treated with the highest-approved prescription doses of NSAIDS.

[2] = test system: patients with OA of the knee and/or hip; test: Integrated summary of efficacy (ISE): change in WOMAC pain subscale score at 16 weeks by joint subgroup; format: in vivo, human; conditions: 1Q4 and 1Q8 regimens; all joint subgroups; 95% confidence intervals excluded zero only for the 1-2 and 3-4 joint subgroups
Source text: The integrated summary of efficacy (ISE) examined the change in WOMAC pain subscale score at 16 weeks in each of the above subgroups and is illustrated in the Forrest plot below (FIG. 4).

[3] = test system: adults with moderate-to-severe chronic pain associated with osteoarthritis (OA) of the knee or hip; test: FACT LTS (NCT02683239, R475-PN-1523) efficacy substudy; format: in vivo, human; conditions: fasinumab 1 mg Q8W and 1 mg Q4W groups
Source text: as §1
The FACT LTS study evaluated the long-term safety and tolerability of fasinumab, including adverse events of special interest such as joint damage (e.g. arthropathies), compared with placebo. A total of 2,411 patients were randomized to one of the following treatment arms: (1) fasinumab 1 mg subcutaneous (SC) every 8 weeks (Q8W); (2) fasinumab 1 mg SC every 4 weeks (Q4W); or (3) matching placebo SC Q4W. This study also included a substudy evaluating the efficacy of fasinumab in these same patient groups (n=215 in fasinumab 1 mg Q8W, n=217 in fasinumab 1 mg Q4W, n=214 in placebo).

[4] = test system: patients with OA of the knee and/or hip; test: ISS rates of DA and AA above and below cut-offs for change in alkaline phosphatase at 16 weeks
Source text: To explore this possibility, three different cut-offs at 16 weeks were chosen (10, 15 and 20 U/L change from baseline) and the rate of DA above and below each cut-off was examined (FIG. 6). Of note, the standard deviation for change in alkaline phosphatase in the placebo arm is 12.9 at 8 weeks and 12.7 at 16 weeks.

[5] = test system: patients with OA of the knee and/or hip; test: Integrated summary of safety (ISS): JR, AA, DA by number of large joints with OA at baseline; format: in vivo, human
Method: To improve risk-benefit for patients, analyses were conducted to identify populations of patients that might be at greater risk for joint-related adverse events. An integrated summary of safety (ISS) analysis was performed using pooled data from the clinical studies R475-PN-1612 (NCT03285646), R475-PN-1227 (NCT02447276), R475-PN-1523 (NCT02683239), R475-OA-1611 (NCT03161093), R475-OA-1688 (NCT03304379), R475-OA-1758 (NCT03691974), and MT-5547-J01 (NCT03245008).
As used in this Example, the term “adjudicated arthropathy” or “AA” is an umbrella term that encompasses the following conditions: rapidly progressive OA type 1 or 2, subchondral insufficiency fractures, and primary osteonecrosis. The term “destructive arthropathy” or “DA” refers to abnormal bone fragmentation, destruction, or fracture over a short period of time, which are observed by X-ray radiography and which are features inconsistent with radiographic findings typically observed in conventional advanced OA. The term “joint replacement” or “JR” refers to joint replacement surgery.
To examine different phenotypes of OA (generalized OA in particular) a subgroup analysis based on the number of large joints (knees, hips, shoulders) with OA at baseline was performed. OA joints were defined as any hip or knee with baseline KL 2 score or above and any shoulder with a score of mild, moderate or severe. Thus, the minimum number of joints with OA was 1 and the maximum number could be 6. Three subgroups were arbitrarily designated 1-2, 3-4, and 5-6 large joints with OA at baseline.
The analyses are based on large numbers of patients: 2103 patients in the placebo group, 1676 patients in the fasinumab 1 mg Q8W group (also referred to herein as “1Q8”), and 3009 patients in the 1 mg Q4W group (also referred to herein as “1Q4”). The percentage of the population in each subgroup was similar across treatment arms; the 1-2 joint subgroup ranged from 55.8 to 59.5% of the entire population, the range for the 3-4 joint subgroup was 33.6 to 37.4%, and the range for in the 5-6 joint subgroup was 6.7 to 7.1%.

[6] = FACT OA1, Week 16, fasinumab 1 mg Q4W, naproxen 2 × 500 mg/day
[7] = 1 mg Q4W (1Q4), 1-2 joint subgroup
[8] = 1 mg Q4W (1Q4), 5-6 joint subgroup
[9] = 1 mg Q8W (1Q8), 1-2 joint subgroup
[10] = 1 mg Q8W (1Q8), 5-6 joint subgroup

## Fasinumab: fully-human high-affinity monoclonal antibody directed against NGF; HCVR/LCVR SEQ ID NOs: 2/10
[1]; [6]
  WOMAC pain, change from baseline: −39%
  WOMAC pain, change from baseline (score, in brackets): (−2.48)
  WOMAC physical function, change from baseline: −39%
  WOMAC physical function, change from baseline (score, in brackets): (−2.41)
[1]; FACT OA1, Week 16, fasinumab 1 mg Q4W, p = 0.0001
  WOMAC physical function, difference vs. placebo: −0.67
[1]; FACT OA1, Week 16, fasinumab 1 mg Q4W, p = 0.0003
  WOMAC pain, difference vs. placebo: −0.66
[1]; FACT OA1, Week 16, fasinumab 1 mg/month vs naproxen 2 × 500 mg/day, nominal p = 0.0006
  WOMAC physical function, difference vs. naproxen: −0.41
[1]; FACT OA1, Week 16, fasinumab 1 mg/month vs naproxen 2 × 500 mg/day, nominal p = 0.0050
  WOMAC pain, difference vs. naproxen: −0.35
[1]; FACT OA1, fasinumab 1 mg Q4W, p<0.01 for all endpoints
  co-primary endpoints: pain and physical function compared to placebo: significantly reduced pain and improved physical function compared to placebo
[2]
  change in WOMAC pain subscale score at 16 weeks compared with placebo: numerically greater improvement compared with placebo
[3]
  co-primary endpoints: pain and physical function (WOMAC score) compared to placebo: significantly reduced pain and improved physical function (WOMAC score) compared to placebo
[4]; cut-offs 10, 15, 20 U/L at 16 weeks, 1Q4 and 1Q8
  odds ratios of DA, change in alkaline phosphatase above vs below cut-off: 6 to 25
[4]; cut-offs at 16 weeks, all 95% confidence intervals excluding 1
  odds ratios of AA, change in alkaline phosphatase above vs below cut-off: 1.5 to 2.5
[5]; 1 mg Q4W
  median time for detection of DA: 343.5 days
[5]; 1 mg Q4W (1Q4)
  difference in all AA from placebo: 5.7%
[5]; [7]
  JR rate, difference from placebo: 1.3%
  RPOA-1 rate: 5.8%
  RPOA-1 rate, difference versus placebo: 4.1%
  percentage of patients who developed adjudicated arthropathy (AA): 7.7%
  percentage of patients who underwent joint replacement (JR): 6.4%
  percentage of patients with destructive arthropathy (DA): 0.3%
[5]; [8]
  percentage of patients who developed adjudicated arthropathy (AA): 12.2%
  percentage of patients who underwent joint replacement (JR): 14.6%
  percentage of patients with destructive arthropathy (DA): 1.5%
[5]; 1 mg Q8W
  median time for detection of DA: 284 days
[5]; 1 mg Q8W (1Q8)
  difference in all AA from placebo: 3.7%
[5]; [9]
  JR rate, difference from placebo: 0.8%
  RPOA-1 rate: 4.8%
  RPOA-1 rate, difference versus placebo: 3.1%
  percentage of patients who developed adjudicated arthropathy (AA): 5.7%
  percentage of patients who underwent joint replacement (JR): 5.9%
  percentage of patients with destructive arthropathy (DA): 0.2%
[5]; [10]
  percentage of patients who developed adjudicated arthropathy (AA): 10.7%
  percentage of patients who underwent joint replacement (JR): 12.5%
  percentage of patients with destructive arthropathy (DA): 0.9%
[5]; pooled high dose (3 mg Q4W, 6 mg Q4W, 9 mg Q8W, 9 mg Q4W)
  median time for detection of DA: 364.5 days
